Where a chain is given by its changes, count along the chain named. In names and notes the source's numbering stands. Like-named read-outs stand apart in the source and are kept apart here.
B1: D222N (protein)
chain: MGSSHHHHHHSFEKIYTYNQALEAKLEKDKQTTSITDLYNEVAKSDLGLVKETNSANPLVSIIMTSHNTAQFIEASINSLLLQTYKNIEIIIVDDDSSDNTFEIASRIANTTSKVRVFRLNSNLGTYFAKNTGILKSKGDIIFFQDSDDVCHHERIERCVNILLANKETIAVRCAYSRLAPETQHIIKVNNMDYRLGFITLGMHRKVFQEIGFFNCTTKGSNDEFFHRIAKYYGKEKIKNLLLPLYYNTMRENSLFTDMVEWIDNHNIIQKMSDTRQHYATLFQAMHNETASHDFKNLFQFPRIYDALPVPQEMSKLSNPKIPVYINICSIPSRIAQLQRIIGILKNQCDHFHIYLDGYVEIPDFIKNLGNKATVVHCKDKDNSIRDNGKFILLEELIEKNQDGYYITCDDDIIYPSDYINTMIKKLNEYDDKAVIGLHGILFPSRMTKYFSADRLVYSFYKPLEKDKAVNVLGTGTVSFRVSLFNQFSLSDFTHSGMADIYFSLLCKKNNILQICISRPANWLTEDNRDSETLYHQYRDNDEQQTQLIMENGPWGYSSIYPLVKNHPKFTDLIPCLPFYFL
B2: R195A (protein)
chain: B1 chain with R195A, N222D
B3: Y176A (protein)
chain: B1 chain with Y176A, N222D
B4: T475A (protein)
chain: B1 chain with N222D, T475A
B5: T200A (protein)
chain: B1 chain with T200A, N222D
B6: I199A (protein)
chain: B1 chain with I199A, N222D
B7: D500N (protein)
chain: B1 chain with N222D, D500N
B8: L196A (protein)
chain: B1 chain with L196A, N222D
B9: T477A (protein)
chain: B1 chain with N222D, T477A

Assays:
His6-PmHS2 = test: Donor substrate specificity of GlcNAcT activity (HPLC), His6-PmHS2; type: biochemical, Pasteurella multocida; conditions: acceptor GlcAβ2AA
Text: (§1) Donor substrate specificity assays. […] Chromatographic separation and detection were achieved similarly to that described above for kinetics studies.

His6-Δ80PmHS2 = test: Donor substrate specificity of GlcNAcT activity (HPLC), His6-Δ80PmHS2; type: biochemical, Pasteurella multocida; conditions: acceptor GlcAβ2AA
Text: as §1

[1] = Reverse glycosylation assay mimicking synthetic conditions; type: biochemical; conditions: 30 mM UDP, conditions mimicking synthetic reactions
Procedure: Reactions were stopped by heating reaction mixtures at 70° C. for 10 min, followed by incubation on ice for 30 min and centrifugation at 11,337 g for 15 min. Supernatants were analyzed similarly to that described above for time-course reverse glycosylation assays.

[2] = α1-4-GlcNAcT activity comparison of His6-Δ80PmHS2 and its D222N and D500N mutants; type: biochemical
Procedure: Reactions were stopped by heating reaction mixture at 70° C. for 10 min, followed by incubation on ice for 30 min and centrifugation at 11,337 g for 15 min. Supernatants were analyzed similarly to that described above for […].

[3] = Protein expression and purification; set-up: species or system E. coli BL21 (DE3); conditions: per L culture
Procedure: Protein expression and purification. The plasmid-bearing E. coli BL21(DE3) cells were cultured in 1 L of LB-rich media (10 g/L tryptone, 5 g/L yeast extract and 10 g/L NaCl) supplemented with ampicillin (100 μg/mL). Expression of the target protein was achieved by inducing the E. coli culture with 0.1 mM of isopropyl-1-thio-β-D-galactopyranoside (IPTG) when OD600 nm reached 0.8-1.0, followed by incubating at 20° C. for 20 h with shaking at 250 rpm in a C25KC incubator shaker (New Brunswick Scientific, Edison, N.J.). Histidine-tagged target proteins were purified from cell lysate. To obtain the cell lysate, cell pellet harvested by centrifugation at 2,795 g for 50 min was resuspended (25 mL/L cell culture) in lysis buffer (Tris-HCl, 100 mM, pH 8.0 with 0.1% Triton X-100). Sonication protocol was 2 s (sonication)/3 s (rest) for a total of 6 min on ice. Lysed cells were centrifuged at 5,000 g for 50 min and the supernatant (lysate) was collected. Purification of histidine-tagged proteins from the lysate was achieved using a Ni′-resin column. The column was pre-equilibrated with 10 column volumes of binding buffer (5 mM imidazole, 0.5 M NaCl, 50 mM Tris-HCl, pH 7.5). The lysate was then loaded, and the column was washed with 10 column volumes of binding buffer and 10 column volumes of washing buffer (16 mM imidazole, 0.5 M NaCl, 50 mM Tris-HCl, pH 7.5). The target protein was eluted with Tris-HCl buffer (50 mM, pH 7.5) containing imidazole (200 mM) and NaCl (0.5 M). The fractions containing the purified enzymes were collected, and stored at 4° C.

[4] = β1-4-GlcAT activity comparison of His6-Δ80PmHS2 and its D222N and D500N mutants; type: biochemical
Procedure: Reactions were stopped by heating reaction mixtures at 70° C. for 10 min, followed by incubation on ice for 30 min and centrifugation at 11,337 g for 15 min. Supernatants were analyzed similarly to that described above for the coupled-enzyme reverse glycosylation assay.

[5] = β1-4GlcA-transferase activity of designed mutants; type: biochemical
[6] = α1-4GlcNAc-transferase activity of designed mutants; type: biochemical

Molecule | suitability as donor substrate (His6-PmHS2) | suitability as donor substrate (His6-Δ80PmHS2) | β1-4GlcA-transferase activity [5] | other results
[N-]=[N+]=NC1C(OP(=O)(O)OP(=O)(O)OCC2OC(n3ccc(=O)[nH]c3=O)C(O)C2O)OC(CO)C(O)C1O (stereo not drawn) [UDP-GlcN3] | not suitable donor substrates | not suitable donor substrates | – | –
CC(=O)NC1C(OP(=O)(O)OP(=O)(O)OCC2OC(n3ccc(=O)[nH]c3=O)C(O)C2O)OC(CN=[N+]=[N-])C(O)C1O (stereo not drawn) [UDP-GlcNAc6N3] | suitable donor substrates | suitable donor substrates | – | –
CC(=O)NC1C(OP(=O)(O)OP(=O)(O)OCC2OC(n3ccc(=O)[nH]c3=O)C(O)C2O)OC(COS(=O)(=O)O)C(O)C1O (stereo not drawn) [UDP-GlcNAc6S] | not suitable donor substrates | not suitable donor substrates | – | –
[N-]=[N+]=NCC(=O)N[C@H]1[C@@H](OP(=O)(O)OP(=O)(O)OC[C@H]2O[C@@H](n3ccc(=O)[nH]c3=O)[C@H](O)[C@@H]2O)O[C@H](CO)[C@@H](O)[C@@H]1O [UDP-GlcNAz] | suitable donor substrates | suitable donor substrates | – | –
O=c1ccn([C@@H]2O[C@H](COP(=O)(O)OP(=O)(O)O[C@H]3O[C@H](CO)[C@@H](O)[C@H](O)[C@H]3NS(=O)(=O)O)[C@@H](O)[C@H]2O)c(=O)[nH]1 [UDP-GlcNS] | not suitable donor substrates | not suitable donor substrates | – | –
O=C(N[C@H]1[C@@H](OP(=O)(O)OP(=O)(O)OC[C@H]2O[C@@H](n3ccc(=O)[nH]c3=O)[C@H](O)[C@@H]2O)O[C@H](CO)[C@@H](O)[C@@H]1O)C(F)(F)F [UDP-GlcNTFA] | suitable donor substrates | suitable donor substrates | – | –
UDP-GlcNAc6NAcPh | not suitable donor substrates | not suitable donor substrates | – | –
B1 | – | – | – | reverse glycosylation oligosaccharide products [1]: no reverse glycosylation oligosaccharide products were observed; α1-4-GlcNAcT activity relative to His6-Δ80PmHS2 [2]: retained; expression level [3]: 50 to 60 mg/L; β1-4-GlcAT activity relative to His6-Δ80PmHS2 [4]: lost; β1-4-GlcAT activity relative to His6-Δ80PmHS2 ([4]; listed as D291N): completely removed
B2 | – | – | retained | –
B3 | – | – | retained | –
B4 | – | – | – | α1-4GlcNAc-transferase activity [6]: retained
B5 | – | – | retained | –
B6 | – | – | retained | –
B7 | – | – | – | reverse glycosylation oligosaccharide products [1]: no reverse glycosylation oligosaccharide products were observed; decrease of α1-4-GlcNAcT activity relative to His6-Δ80PmHS2 [2]: 548 fold; expression level [3]: 60 to 70 mg/L; β1-4-GlcAT activity relative to His6-Δ80PmHS2 [4]: retained
B8 | – | – | retained | –
B9 | – | – | – | α1-4GlcNAc-transferase activity [6]: retained

Reference: patent US11441131B2, “Heparosan synthases and use thereof for saccharide synthesis” (The Regents of the University of California, priority 2019, dated 2022)
